± gives the standard deviation.

The series can be described thus: protein stability index of a GFP-peptide fusion (GPS, HEK-293T) (PSI 1-6); higher = more stable. The note with it: c terminus: a fixed tail appended.
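Also: 24-mer peptide tiles fused after GFP, lentivirally expressed, FACS-sorted into six equal bins by GFP/DsRed ratio, decoded by Illumina sequencing, PSI is the read-weighted mean bin number.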

Consider AAEYHAQRLKAVIVIQTYYRQWHA [IQUB], for which the protein stability index reads like this: (treatment: DMSO) 4.97 ± 0.25; (treatment: MLN4924 1 uM, 8 h) 4.88 ± 0.32.

For AAGEQLQQQHVSCQVFPERLAQGN [ATP23], the protein stability index reads like this: (treatment: DMSO) 4.47 ± 0.15; (treatment: MLN4924 1 uM, 8 h) 4.5 ± 0.28. In the case of AAGVFSNPAVRTAAANAAAGAAEN [SCAMP3], the protein stability index was 5.03 ± 0.1 (treatment: DMSO) and 5.06 ± 0.23 (treatment: MLN4924 1 uM, 8 h).

Take AALHIDLCKATSPADALQYLLQFA [INTS4]: the protein stability index was 2.36 ± 0.51 (treatment: DMSO) and 2.29 ± 0.15 (treatment: MLN4924 1 uM, 8 h). AAPAAKTRKQAAKKVAPLMAKAIR [ELOA2]: the protein stability index turned out to be 3.78 ± 0.24 (treatment: DMSO) and 4.16 ± 0.21 (treatment: MLN4924 1 uM, 8 h). Consider AAPPPLKDDPEGDRDGCVITKVLL [ZBED3], for which the protein stability index by setting is: (treatment: DMSO) 3.62 ± 0.27; (treatment: MLN4924 1 uM, 8 h) 3.62 ± 0.27. Take AAVVHHFESFPAGSTLIFYKYCDH [TOR1AIP2]: the protein stability index is 2.37 ± 0.43 (treatment: DMSO) and 2.23 ± 0.52 (treatment: MLN4924 1 uM, 8 h). For the sequence ADDHRYKFADNKWSVTGKAEPAMP [TBX5], the protein stability index is, setting by setting: (treatment: DMSO) 4.04 ± 0.17; (treatment: MLN4924 1 uM, 8 h) 4.2 ± 0.15.

For ADFKGVLQRPSYKFFFKSMDDDFG [DVL3], the protein stability index is, setting by setting: (treatment: DMSO) 2.5 ± 0.28; (treatment: MLN4924 1 uM, 8 h) 2.67 ± 0.11. Turning to ADNMEFEQCIKLWLHALHLRQKGN [FEM1B], the protein stability index is 2.56 ± 0.15 (treatment: DMSO) and 2.72 ± 0.2 (treatment: MLN4924 1 uM, 8 h). Consider AEKRQIGDQEGPRPARSTLDELLG [FBF1], for which the protein stability index stood at 4.64 ± 0.22 (treatment: DMSO) and 4.93 ± 0.1 (treatment: MLN4924 1 uM, 8 h). As for AELLKANEIIKKLQGDLKTLMGKL [SASS6], the protein stability index was 2.36 ± 0.59 (treatment: DMSO) and 3.44 ± 0.66 (treatment: MLN4924 1 uM, 8 h). For the sequence AEREALQARLRDVSRREGALGWAP [ZBED3], the protein stability index by setting is: (treatment: DMSO) 4.04 ± 0.13; (treatment: MLN4924 1 uM, 8 h) 3.92 ± 0.17.

With AESKGTGREKPGPLDFEAYSAAAL [FCHO1], the protein stability index by setting is: (treatment: DMSO) 4.8 ± 0.12; (treatment: MLN4924 1 uM, 8 h) 5.04 ± 0.22. For AFCNGQKLQVSQQEDITKSLLVTE [IMPA1], the protein stability index is 3.69 ± 0.12 (treatment: DMSO) and 3.73 ± 0.27 (treatment: MLN4924 1 uM, 8 h). On the same counts, the results for AFPAAVSSMKKFCRPLLPSCTTRL [PSD2] are 2.33 ± 0.27 and 2.32 ± 0.093.

For AGGGSQENLDNDTETDSLVSAQRE [DVL3], the protein stability index is, setting by setting: (treatment: DMSO) 5.32 ± 0.21; (treatment: MLN4924 1 uM, 8 h) 5.65 ± 0.36. With AGNSTSGSRAGASSFSDPFFVVET [KCNA3], the protein stability index (treatment: DMSO) amounted to 3.75 ± 0.15 and the protein stability index (treatment: MLN4924 1 uM, 8 h) was 3.58 ± 0.27. For the sequence AIALANSDSMHIEDVEAVQKLQDV [ESRRG], the protein stability index is 4.53 ± 0.092 (treatment: DMSO) and 4.66 ± 0.15 (treatment: MLN4924 1 uM, 8 h). Consider AIDMFIIGATFTDWFTSYVKNVVS [FBXO3], for which the protein stability index (treatment: DMSO) amounted to 2.82 ± 0.35. For the sequence AKIRAKIPGTGALASAAAAVSGSK [RTN2], the protein stability index turned out to be 4.3 ± 0.15 (treatment: DMSO) and 4.64 ± 0.34 (treatment: MLN4924 1 uM, 8 h).

Turning to AKVKGEKLDKKLKKMEQNKTAATR [ATF4], the protein stability index reads like this: (treatment: DMSO) 4.88 ± 0.39; (treatment: MLN4924 1 uM, 8 h) 4.85 ± 0.16. Take ALCATDVKFISNPPSMVAAGSVVA [CCND1]: the protein stability index came out at 2.86 ± 0.28 (treatment: DMSO) and 3 ± 0.23 (treatment: MLN4924 1 uM, 8 h). On the same counts, the results for ALLLGQGANINAQTEETQETALTL [ANKRD17] are 4.17 ± 0.32 and 4.32 ± 0.27.

ALVRLRETEEMLGKKQEYLENRIQ [CHMP4C]: the protein stability index reads like this: (treatment: DMSO) 3.02 ± 0.46; (treatment: MLN4924 1 uM, 8 h) 3.35 ± 0.2. As for AMDNHSDSEEELAAFCPQLDDSTV [RETREG3], the protein stability index is 5.34 ± 0.23 (treatment: DMSO) and 5.4 ± 0.14 (treatment: MLN4924 1 uM, 8 h). Take AMETDGPLFEDVQMLRKTVKDEAH [PPP2R5C]: the protein stability index by setting is: (treatment: DMSO) 5.24 ± 0.49; (treatment: MLN4924 1 uM, 8 h) 5.12 ± 0.39. In the case of APTADDDDDDHDDHEDNDKMNDSE [NOL4L], the protein stability index worked out at 5.53 ± 0.2 (treatment: DMSO) and 5.54 ± 0.28 (treatment: MLN4924 1 uM, 8 h). As for APTSTCRTSVGVAVLGGFLYAVGG [KLHL20], the protein stability index was determined as 3.02 ± 0.94 (treatment: DMSO) and 2.71 ± 1.2 (treatment: MLN4924 1 uM, 8 h). On the same counts, the results for AQLYTLWVTFQVLLYTSLPDFCHK [DHCR7] are 2.88 ± 0.13 and 3.13 ± 0.18.

Consider ARAFAEKNGLSFIETSALDSTNVE [RAB11A], for which the protein stability index runs as follows: (treatment: DMSO) 4.28 ± 0.41; (treatment: MLN4924 1 uM, 8 h) 4.24 ± 0.44.

As to ARDCFATGRHYWEVDVQEAGAGWW [TRIM14], the protein stability index by setting is: (treatment: DMSO) 2.42 ± 0.22; (treatment: MLN4924 1 uM, 8 h) 2.41 ± 0.3. Consider ARQLQLSDPQTVAGAFGYFQQDTK [LPCAT4], for which the protein stability index is, setting by setting: (treatment: DMSO) 3.82 ± 0.41; (treatment: MLN4924 1 uM, 8 h) 3.9 ± 0.16. For ARSIAEQAHELAYDPNYMSPFAQF [PPTC7], the protein stability index was 2.91 ± 0.35 (treatment: DMSO) and 3.08 ± 0.27 (treatment: MLN4924 1 uM, 8 h). Take ASAQKFSSRSTVPTPAKRRSSALW [NET1]: the protein stability index by setting is: (treatment: DMSO) 3.41 ± 0.039; (treatment: MLN4924 1 uM, 8 h) 3.5 ± 0.33. The corresponding values for ASFCVETNNGAGFGLSILWVLLFT [SCAMP3] are 2.86 ± 0.71 and 2.99 ± 0.12.

For ASLDNGGCALTTFSVLEGEKNNHR [SOAT1], the protein stability index is, setting by setting: (treatment: DMSO) 4.2 ± 0.31; (treatment: MLN4924 1 uM, 8 h) 4.34 ± 0.09.

(Values after the supplement of paper PMC10567573.)
